Data on 30 sequences can be found in the nanobody polyreactivity screen of Harvey et al. (2022).

This data set can be described thus: yeast display, Sf9 membrane polyspecificity reagent, FACS + sequencing; frameworks hold sequencing errors. The method in brief: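 Nanobodies from a synthetic yeast display library (Saccharomyces cerevisiae BJ5465), induced 36–48 hours with galactose, were stained 1 hour at 4 °C with 10% biotinylated, detergent-solubilized Sf9 membrane reagent, enriched on streptavidin microbeads, then FACS-sorted. Anti-HA (expression) and streptavidin (reagent binding) fluorescence set low and high (top ~1%) gates. Polyreactivity labels come from the gate of origin. Genes were colony-PCR amplified, MiSeq 2 × 250 sequenced and filtered by CDR length.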
Take “QVQLGESGGGLVQAGGSLRLSCAASGSTFAYNDMGWYRQAPGKEMELVADIRSGGNTKYADSVKGRFTISRDNAKNTVYFQMNSLKPEDTAVYYCATDGYRIDVYHPDYRYDYWGQGTQVTVSS”: the “polyreactivity (PSR sort gate)” value was “low polyreactivity”.

On to “QVQLGESGGGLVQAGGSLRLSCAASGSTFGFYAMGWYRQAPGKERELVAAISGRGGSTYYADSVKGRFTISRDNAKNTVYLQMNSLKPEDTAVYYCAKEFKYWGYPYDYWGQGTQVTVSS”, for which the “polyreactivity (PSR sort gate)” value is “low polyreactivity”.

In the case of “QVQLGESGGGLVQAGGSLRLSCAASGSTFNLYAMGWYRQAPGKERELVAAISFSGGSTYYADSVKGRFTISRDNAKNTVYLQMNSLKPEDTAVYYCAAVESSYEAWDTYYYWGQGTQVTVSS”, the “polyreactivity (PSR sort gate)” value is “low polyreactivity”.

“QVQLGESGGGLVQAGGSLRLSCAPSGSTFNRFARGWYILAPGNVRELVAAISRSGGSTYYADSVKGRFTISRDNPKTTLYLQMNSLKPEDTAVYYCAADRTGHGFGYWGQGTQVTVSS”: the “polyreactivity (PSR sort gate)” value is on record as “high polyreactivity”.

As for “QVQLGESGGGLVQAGGSVRLICAASGGIFEWNAMGWYRQAPGKERELDAAISNTGGSTSYADSVKGRFTISRDNAMNSVYLQMNCLKPEDTAVYYCNRFPPRRYYARYYSWGQGTQVTVSS”, the “polyreactivity (PSR sort gate)” value was “high polyreactivity”.

As for “QVQLGESGGGLVQAGGTLRLTCAASGSIFNGNAMGGSRQAPGKERELVAAISRNGGSTYYAVSVKGRFTISRDNAKNTVYLQMNSQKPEDTAVYYCDTDLTVYYSYYWMYWGQGTQVTVSS”, the “polyreactivity (PSR sort gate)” value was “low polyreactivity”.

In the case of “QVQLGESGGGLVQAVGSLRLSCAASGSTFRGNAMGWYRQAPAKARELVAANTSDGSTSYADSVKGRFTISRDNAKNTVYLQMNSLKPEDTAVYYSNADYHQSIWEAVDFEYDYWGQGTQVTVSS”, the “polyreactivity (PSR sort gate)” value is given as “low polyreactivity”.

Regarding “QVQLGESGVGLVQAGGSLRLSCASSGRTLPVNAMGWYRQAPGKERELVAGISWGGDSTYYADSVKGRFTISRDNAKNSVYLQMNSLKPEDTAVYYCAASSSTWPGDFWGQGTQVTVSS”, the “polyreactivity (PSR sort gate)” value is given as “low polyreactivity”.

Regarding “QVQLGESRGGLVQAGGSLRLSCAASGIIFTFNAMVWYSQAPGKERELVAGISQGGSSTNYADSVKGRFTISRDNAKNTVDLQRNSLKREVTAVYYCAAYVDIVGDYWVVGYYYWGQGTQVTVSS”, the “polyreactivity (PSR sort gate)” value is on record as “low polyreactivity”.

For “QVQLHESGGGLLQAGGGLRLSCAASGSISSTGFMGWYRQAPGKEREPVAAIAPGTTTYYADSVKGRFTISRDNAKNTVYLQMNSLRPEDTAVYYCAVFTDNRVAFLYWGQGTQVTVSS”, the “polyreactivity (PSR sort gate)” value is “low polyreactivity”.

For “QVQLHESGGGLVHACGSLRPSCAASGSISDSWTMSWYRQAPGKEREFVAGITWGGTTNYADSVKRRFTISRDNAKNNVFLQMNSLKPEDTAVYYCAAVSYYGVDQYRITVYTYEYWGQGTQVTVSS”, the “polyreactivity (PSR sort gate)” value is given as “low polyreactivity”.

On to “QVQLHESGGGLVQAGGGLRLSCAASGSISSTGFMGWYRQAPGKEREPVAAIAQGTTTYYAESVKGRFTISRDNAINTVYLQMNSLRPEDTAVYYCAVFTDNRVAFLYWGQGTQVTVRS”, for which the “polyreactivity (PSR sort gate)” value is on record as “low polyreactivity”.

Turning to “QVQLHESGGGLVQAGGGLRLSCASSGSISSTGFMGWYRQAPGKEREPVAAIAPGTTTYYADSVKGRFTIRRDNAKNTVYLQMNSLRPEDTAVYYCAVFTDNRVAFLYWGQGTQVTVSS”, the “polyreactivity (PSR sort gate)” value is reported as “low polyreactivity”.

Consider “QVQLHESGGGLVQAGGSLRLSCAAIGTISYSGPMGWYRQAPGKEREFVAGIGVGSNTNYADSVKGRYTIIRDNAKNTVYLQMNSLKPEDSAVYYCAVGGYAPLGRPYWGQGTQVTVSS”, for which the “polyreactivity (PSR sort gate)” value is “low polyreactivity”.

Turning to “QVQLHESGGGLVQAGGSLRLSCAASGTISYAGPMGWSRQAPGKEREFVAGIGVGSNTNYADSVKGRYTIIRANAKNTVALQMTCLKPEDTAVYYCAVGGYAPLGRPYWGQGTHVTVSS”, the “polyreactivity (PSR sort gate)” value is listed as “low polyreactivity”.

For “QVQLHESGGGLVQAGGSLRLSCAASGTISYAGPMGWYRQAPGKEREFVAGIGVGSNTNYADRVKGRYTIIRDNAKNTEYLQRNSLKPEDTALYYCAVGGYAPLGRPYWGQGTQVTVSS”, the “polyreactivity (PSR sort gate)” value is recorded as “low polyreactivity”.

“QVQLHESGGGLVQAGGSLRLSCAASGTISYAGPMGWYRQAPGKEREVVAGIGVGSNTIYADSVKGRYTIIRDNAKKTVYLQMKSLKPEDTEVYYCAVGGYAPLGRPYWGQGTQVTVSS”: the “polyreactivity (PSR sort gate)” value is reported as “low polyreactivity”.

Turning to “QVQLHESGGGLVQAGGSLRLSCAASGTISYAGPMGWYRQAPGTEREFVAGIGVGSNTNYADSVKGRYTIIRDNAKNTVYLQMNSLKPEDTAVYYCAVGGYAPLGRPYWGQGTQVTVSS”, the “polyreactivity (PSR sort gate)” value is given as “low polyreactivity”.

In the case of “QVQLHESGGGLVQAGGSLRRSCAPSGTISYAGPMGWYRQAPGKEREFVAGIGVGSNTNYADSVKGRYTIIRDNAKNTVYLQMNSLKPEDTAVYYCAVGGYAPLGRPYWGQGTQVTVSS”, the “polyreactivity (PSR sort gate)” value is on record as “low polyreactivity”.

Turning to “QVQLIESGGGIVQAGGSLRLSSAASGIIFDWYTMGWYRQATGKERELVAAISWRGGRTYYADSVKGRFTISRDNAKNTVYLQMNSLKAVDTGVYYCAAEAPVQPFYVFNSGIYDLDYWGQGTHVTVSS”, the “polyreactivity (PSR sort gate)” value was “low polyreactivity”.

As to “QVQLIESGGGLVQAGGSLRLSCAASGRTFRYNAMGWYRQAPGKERELVAGISTGGSTYYADSVKGRFTISRDNAKNTVYLQMNSLKPEDTAVYYCARYYHARPNGPRSDDYDYWGQGTQVTVSS”, the “polyreactivity (PSR sort gate)” value is recorded as “low polyreactivity”.

For “QVQLLDAGGGLDQAGGSLRLRCAASGSIFRYYPMGWYRQAPGKQREMVASISWSGTSTYYADSVKGRFTISRDNAKNTVYLPRNSLKPEDTAVYYCNKDRWGRYYTRYDYWGQGTQVTVSS”, the “polyreactivity (PSR sort gate)” value is given as “high polyreactivity”.

On to “QVQLLDSGGGLVQAGGSLRLSCAASGSTIAYYDMGWYRQAPGKERELVAAISWSGGSTYYADSVKGRFTISRENAKKTVYLQMNSLKPEDTAVYYCNRLLGYFTDSSGSPMGYWGQGTQVTVSS”, for which the “polyreactivity (PSR sort gate)” value was “high polyreactivity”.

Turning to “QVQLLESGGCLGLAGASLRLSCAASGSTFSTYAMGWYRPAPGKERELVAAITRRGGRTYYADSVKGRFTISRDNAKNTVYLQMNCLKPEDTAVYSCNVLSGLFVQAEYDYWGQGTKVTVSS”, the “polyreactivity (PSR sort gate)” value is on record as “high polyreactivity”.

As to “QVQLLESGGGIVQEGGSLRLSCAASGRIFSPYAMGWYRQAPGKERELVAAITWSGVSTYYADSVKGRFTLSRDNAKNSVYFQMNSLKPEDTAVYYSAVDPRGHEGVRYNYWVQGTQVTVSS”, the “polyreactivity (PSR sort gate)” value is on record as “low polyreactivity”.

Turning to “QVQLLESGGGLFQAGGSLRLICAASGRIFDENAMGWYRQAPRKDREMVAAISWSGGITYYADSVKGRFTISRDYAKNNVYLQMNSLKPEDTAVYYCAADIFQGYTFYQGYPGGAGYWGQGTQVTVSS”, the “polyreactivity (PSR sort gate)” value is given as “low polyreactivity”.

On to “QVQLLESGGGLVKAGGSLRLSCPASGIIFYEYVMGWYRQAPGKERELVAAINRSGGSKYYADSVKGRFTISRDNAKNTVYLQMNSLKPEDTAVYYCAAKPYYFYGMDYWGQGTQVTVSS”, for which the “polyreactivity (PSR sort gate)” value is recorded as “high polyreactivity”.

Regarding “QVQLLESGGGLVLAGGRIRLSCAASGRTYRYTMGWNRQSPGKERELVAAISRSGGSTYYADSVKGRFTISRDNAKNSFYLQMNSLKPEDTAVYYCAKVIYRYNETYDYWGQGTQVTVSS”, the “polyreactivity (PSR sort gate)” value is recorded as “high polyreactivity”.

Consider “QVQLLESGGGLVQAGGSLPVSCAASGSTFDTNDMVWYRQAPGKERELVAAISSGGDYADSVKGRFTISRDNAKNTVYLQMNSLKPEDTAVYYCAKDDTKWGQGTQVTVSS”, for which the “polyreactivity (PSR sort gate)” value is reported as “low polyreactivity”.

Regarding “QVQLLESGGGLVQAGGSLRISCAASGFIFDYYMGWYRQAPGKERELVARISYTGGSTYYADSVKGRFTISRDNAKNTVYLQMNSLKPEDTAVYYCATRGAEAERFASYEFDYWGQGTQVTVSS”, the “polyreactivity (PSR sort gate)” value is given as “low polyreactivity”.
